Experimental data as given in the DeepSol protein solubility set.

Test: soluble on expression in E. coli; label from the status in PepcDB or PDB records

Sequence | soluble on expression in E. coli
MDSENAVKTTYGEFNGKKPFAVMLLGTDTGALDRTEKRGNTDTIIVVVVNPKKKNYTMISIPRDTMADMVGDDSNDVQKINAAYSIGGAKMAMKTVSNLLNIPVKYYALVNMGGLMKLVDYVGGIYVTPPLTFTYSGFPFKKRVRQHLNGQAALAYSRMRYDDPQGDYGRQKRQREVITKLVQKLATADSLTNFSKIANNLSSNVKTNLSFQALKSILANYSDCTSSSDSDYLHGYSTYVNDAAYQIAPTSELQRISNKIRKLLGLKTATVSNRETELNTLNETAGFKFGSGETQNYTLEHHHHHH | soluble
MPASEDYEGQVPAWCPGCGNFQILSTIKQALAELGIEPREVLLVSGIGQAGKLPHYIKCHTFNGLHGRTLPVATAAKLANHSLHVIAVAGDGDCYAEGGNHFLHAIRRNPNISLFVHNNQIYGLTKGQASPTSAKGTHTPAQPFGYLAHPFNPLALAISQDCSFVARGFAGDQEHLKELIKAAITHRGFSLLDILQPCVTFNKVNTFKWYRERVYRLESDYDPYNQTKAFEKALEWGDKIPNGIFYKSDKETLEEMMPTLHEMPLVRKKFSPEDVKHEIEKFY | not soluble
GPGSMSFSHFVPPISRRRMFFEDQLDEALSREGSPRLSTSNTVGGADLVAAGAANDETFPFPSHAAPGHLLKSLIQATENERCAPDILPYPEAIVDSVVAQIVAQNEQIRLLGTDERQKAAGSDSGVSLLPFKPSDIMALEVQRAQFFLCELLRCRLRKIEALALTINYESQSGAEAHTQLREHLSHNEIVVADRLAELISKCVRQAGLQSAPSELQQLVPNAPYAEGNEVLPIPDIDHYVFCVVLDDLGVVRLGDDAEQTVHAGEVFIVPYRTFRPYILEGRVRLV | not soluble
MKEKYKKSLYIPNELLLEIFADKNLDIQNIIVVSMVCKLWYELSLDNAVWRPLFIKRFSYSPTLANHSIFKEDYQKQLALTQAMKKKCESNHACRNEPGLLEAIREKNIPLIYALFESGHRIIIDSFPDGEQQFTEEMLGFLSECAELPSSLLARIFKRGFCTADMETSEFLALHFIVAEADEKLLQKIFRALGDDLLSVSRYCDLYDNNFFSSLLHFPVERFSLVLRLLYETLGKTKLSTLLVYQNHTYTDWSCIHSASRCGREYFFITLKYLKRQDYPVLLKKGLNDEDIPLFNIAYWGDKESLSHIINILGADATTFLKYKDNKGRNILLPALLSEDHSTVELIEKVMGMEFIDLLLMQDTNGRDILRRVMLLQEPTVLRRINTVLKLLRDYDCLDIAQELYSSDEFTQLISQNLYINQDETIELFNKYTEEKTNNFCSIL | not soluble
MGSDKIHHHHHHMRYVILARNLDSKAGGISVYGRNLIKKLEAKGIDVIISPKEKFSYFKWLLFDVPIFILKTDADVYHAIGIIEGILLPFIKPRAKKYLTVHDLIPLKYKGRGFRKILERFLVRLGLFSARFYDKIFAVSHLTKLDVIRFGGIDENKIEVVYQPIDDKFLKTPTSGKRHKTFNIGYISRMEAYKRHELLIKLFMKYKNPNARLYLAGTGPLFKKIQKLAEEDKRIILLGFVPDDKIVEFYDMLDVYIHPSKYEGWGLPIVEATARKKPVIIFEDAEIPREVKYLCLSIDFNIINPLISNLKYLKKVGVIKNKAWRRIYENSICH | not soluble
MLTHQFNPYSACTSILVGKNASADGSTMIGRNEDSRAAWAKKMIIHAHREFEEPQTFKSQDQTHPFTMTLPKIRAKYTATPEWTAEYGLFEEDGINEYGVAMSATESAYCNTRVLAADPYVKDGIGEEAMVTVTLPYIHSAREGVERLGHIIEEHGTYETNGILFSDVNEVWYMETGAGHYWVAQRIPDDAYAVVANQLAIQEIDFSDHDNYLYAKDIRNFVLDNQLASMDNGLNFREVFGTADLSDRYYNTPRVWYGQRCFTPSVTQTPESFDLPFIQRADGLIHIDQVQGYLASHYQGTPFDPVGQGTATEKHQYRPISLAKTQESHVLQLRPDLPVTLSGIHWLAMGVAAESVYVPFYAGATTTPAAYQVATEKYDATSAYWIFKHVGILVDAHYHELHGELQTVQKELAIQLGHHIIVTDQQVAALTGDELAMALTKANQKAVDQALNTMQALAADLITKSTDMSPLNYDTDLNLLEHHHHHH | not soluble
GPGSMIGAPWPPEAVFGNTVDRVASPAPVPERKISIADQLHLPLSRFVEKMSWGEKRRVQILHGMLYPATVYLLDECSTDIDVAERRTVLELVRQECEAKDGCCVYATHIFDGIEGWATHLLLMEGGRVVDFKAVEKLTLPLEDYALQFMSKRAHAARGVDGVAAASLSHGSSAAISTTSPACPTTAAAACPTSATTDAPVTYWPRGHADEKRSEIVINCAQLNYKDVFKNLSFQVFRGERVLLCGGNGTGKSTLLNMLGGKQFFDNRQGSLSVLGKRCYDDMLLNALVSYGGDWWTAVPGGEVHVREMLQLRTSRAERLCEMLAVDMDWDVRHISAGEQKRVQLLLHLLDDKPVVLLDEATTDLDVYQRHSLLQFLYEESVQRGVTVVYSTHIFGGVEGWANVVVLLDRTVRGVHAVWRASEGQPIVLQRVVDAIVSLKAREVF | not soluble
MDQENERNISRLWRAFRTVKEMVKDRGYFITQEEVELPLEDFKAKYCDSMGRPQRKMMSFQANPTEESISKFPDMGSLWVEFCDEPSVGVKTMKTFVIHIQEKNFQTGIFVYQNNITPSAMKLVPSIPPATIETFNEAALVVNITHHELVPKHIRLSSDEKRELLKRYRLKESQLPRIQRADPVALYLGLKRGEVVKIIRKSETSGRYASYRICM | soluble
MKEKIPFYNEKEFHDMVKKTKKGTFSGWYIIDKDNKSVEFSGSFNRQFKLNKPVIPVNTEYVTRKEFNEYKVSNDQRLTKIETTLAAQGEQINKLTQTVEKQGEQINQLVQVVLLHGEQINKLTQTVEKQGEQIKELQVEQKAQGEQIKAQGKQIKAQGKTLKSILQALGGINKRLDKIDPPKLEHHHHHH | not soluble
GPGSMNRDPQNALLLEQMAQKTKRLLLQRSPSTVNGIRSFSRSLGIADDLGSTQVTAEELQHALQENNVSLEEHELQNIFTVLDRTGKGTIDPTDFIAVMCNNLGPLRKVWLRRVWRMFTKDPDDGSVQVCELQRQFIAEGHPAVVRHETTAAEVRKDFESAFNESTNPDGKISAQEFAEYYAGVSVSCSNDESFVALLRGVWPLPGVSRDFSLSLAKGEAQYQGSYHTEQSLAEKTAVASREAVRSALMRMIRCDHAPVALSSGAAARALCLSLAQADEAGSGFVSEAVFVGALRTHRLYVPNTSVLECLDTNGDGTVDIKYYEELLLPSPSAARLMLLARLWSRCFENKDAAYRVPVQDLHRKYHASSPADKDAFLTAWDVRTAVGGKVELEELVQWYVPQSAAVQRDKDFEALLHRQWGKYDE | soluble
MTEVIAYLIEHFQDFDTCPPPEDLGMLLEEAGFDTMEIGNTLMMMEVLLNSSEFSAEPADSGALRVYSKEETDNLPQEVMGLMQYLIEEKAVSCEQREIIIHALMHIPGDEITVDTAKVLTLLLLWANKSELPVLVGDELMSALLLDNKPTMN | not soluble
MSLNNQDISIGKLSRLKIWITDNHLSDDQWSNTKKFIIIKITTEDGIEGWGEAFSINFREKGIAIIIKELFREISNIPNLSIKSFYNKISLLSDGHRGLDFSSATSAIEIALWDISGKLKNLPLNSLLTKSPKPNVPIYATCWSDLKKDTNDYLRQIEKFYGKKYGGIKIYPMLDSLSISIQFVEKVREIVGDELPLMLDLAVPEDLDQTKSFLKEVSSFNPYWIEEPVDGENISLLTEIKNTFNMKVVTGEKQSGLVHFRELISRNAADIFNPDISGMGGLIDIIEISNEASNNGIFISPHCWNSMSVSASAMLHVCSSIPNSEKAEIFPDYINFSKKFCELPFDIIDNKAHINKSAGLGIVIHEDILSELSIYSLDEKSNDEGHHHHHH | soluble
SGLIGEGLKDVKSAAGDTRVDNFADRLAALSQAAQPARAVAAPASAPLMNQPLAMHQSGWTEGIVDRVMYLSSQNLKTADIKLEPAELGRLDIRINMAPEQQTQVTFMSAHMGVRDALESQMSKLRESFVQQGLGNVDVNVSDQS | not soluble
GMNQSIIFTEQLTWDVQLSAIHFTAQQQGMVIDCYIGQKVLEHLAAEKINNSEQALSLFEQFRFDIEEQAEKLIEQEAFDVQGHIQVERVD | soluble
MEVHAADQYLVAPGEADLLEVHARLAGTGLFPPFPPVELPGGVGGLVARGGFAQTFFFPAEVLGLTFRTPKGRRVRAGGVVVKNVQGYDLVRLFVGSFGLLGRAEEVVLRLRPGRAQAFLRRPFSGSFPRLVPTPRFLFALEDEEGPWLYAYHFGHPKEVERFREAFGGEEARPLDLRPRFPRGLGLGEGPLWDLRFRYQDGGASPPPPPAFLRLARVL | soluble
MNRLHRWNWLVLSAALVTLPFTTPTQAAGVSVSQGSSASLSQAELEQMLAPIALYPDSLLSHILIASTYPLELVQAQRWLEDHPKLSVEQVMSRTEDKGWDPSVKALMAFPNVLQKMSEDLDWTQRLGEAFLANEGQVMDGIQSLRQQADKANSLANMDNMAVTRANNQIIIEPVRREVVYVPYYDPRVVYGTWRWGVAYPPVYWQFGGYVGNPYRPSHSYFYWSPGIHISFNYFFSSFHWHRHKVVVIDHHHSHHYRPRERYSVSHGAQPWKHKPEHRRGVAYHHPVVKERYYSDSKYRGRDSHSSGSGQHFTSQYAKSREHQDTRDNRDNQRDDKRHDKDRGNQYSRERTPNLQHTQAELKERRATPMDSSQTHRENYQREHRQKERNDNGRHDNQVRQNQAKTMREQTNDTWQRQYQQREYQSSDQQPRHVETRAQPQRHEARPEVRRPEPQRIEQPRQAQPRQREEVRTRPSESRQHTQCGA | not soluble
MGSDKIHHHHHHMNQYERKMLDLLKRGKQELGYVGVKAEFEAEGTRTDELLRLIELARKAGLNVGLKIGGCEAMRDLMESKQYGVEYIIAPMIESGYALSKFIDAKNKVYSKDEQRDTRFLFNVETKSAFGCMDELVQIAAQPGGADGVVFGRVDFSLSMGLTRDDINDPKVTSYCLEVSEACKRSGLDFVVGGGVSMDALSIMKELNSSHLSRFETRKIIFDAAMMENADVHNGLLQAVHFELLWLLNKREYYSCILKEDAKRIEMLERRWHVLSADEKASTSTYVNQPNI | not soluble
MSLKAIWHGGFIYTMLEEGDRTEAVYVEDGVIKGTGSYERLKEKYGSPETEEISLNGAVMFPGFVDSHLHLIGHGEKQLQLDLSALTSKDSILQAAKERERQLPKNDWLIGEGWNENQFETPDYLTKHDLDRLFPDRPVLLKRICRHAIAVNSAALQAAGISRNTPDPDGGVIVKDANGEPTGLLFDKAQDLILKAVPPVSQHYVDEALTAAIKDCWTKGLTGGHSEDLSYYGDVSVPMKAYEKAAAGGKYPFRCHLLVHHEAVDRWEQLEKLSGPYVEFGAMKIFADGALGGRTALLKEPYQDDPSTNGVQVHDDETLGRLIRKAREKGMEVAVHAIGDLAFEKVLNAIEKHPPKNGRHDRLIHAQVLDNELIERAARMPIALDLQPHFVASDFPWVIDRLGKDRMKTAFAWKTLISKGILCAGGSDAPIEPVDPLLGIQSAVLRKSSHEQNGPSYNESECLPVYEAIKLYTEGSAGIIYKEKSRGKIAEGYDADFTVLSGDPFAIDPAQLHLLEIKKTVINGQIVYEKSEGHHHHHH | soluble
MKKDQYFNLEVNFLSNDNIVRMMMELDAAQSLGIYMMLLTHLRKADNYEASCCPLCMGAFARMYDLDAGVLQRVLREFDLFVLDEERQMFRSPYLDRVMARLEERRMINVANGKKGGRPKRMESTPETPMDKGEKPNQNQKSREEERRVTTVVKDNNSSNEEKTEKENSAAASDRLQIVSPPEDRGQLPLQPVLPWEMLVDQMAESESYMESMAMHSCMGKLFVERQEEVIAAFKEHIRRFGREDGLLFLRDVKLYFGNYLSPGGRPAQELKKRLLGSCRQSAEEELYRFEQLIGGQRTYLGHPIPKDAPPRPDRSAVWDEVHWKWGN | not soluble
